Test results published in the supplement of paper PMC9732359.
± gives the uncertainty stated by the source.

Assay: protein stability index of a GFP-peptide fusion (yeast GPS) (PSI 1-4); higher = more stable; sorted into four equal gates, so the index is relative within each strain
Procedure, shortened: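 Tiled yeast protein peptides of 17 residues were each joined downstream of GFP, on plasmids that also express Cherry. The pooled library was maintained in yeast, and mid-log cultures in leucine-free medium were sorted into four equal gates on the GFP/Cherry ratio. Plasmids from every gate were amplified by PCR and sequenced on Illumina, with barcodes linking reads to strains. The protein stability index of a peptide is its gate-number-weighted read frequency summed over the gates.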

## IDVMKSQIIPLMKKACY [SNU114]
doa10∆
  protein stability index: 2.23 ± 0.094
pdr5∆
  protein stability index: 2 ± 0.051
san1∆
  protein stability index: 2.77 ± 0.047
ubr1∆
  protein stability index: 2.08 ± 0.05

## NRQVMHKMGVERSSKRL [SIR3]
doa10∆
  protein stability index: 3.23 ± 0.17
pdr5∆
  protein stability index: 3.49 ± 0.14
san1∆
  protein stability index: 3.46 ± 0.14
ubr1∆
  protein stability index: 3.34 ± 0.19

## HKSIELISNLLFSKNRN [YCS4]
doa10∆
  protein stability index: 2.25 ± 0.055
pdr5∆
  protein stability index: 2.47 ± 0.047
san1∆
  protein stability index: 2.52 ± 0.046
ubr1∆
  protein stability index: 2.41 ± 0.05

## ELLEERFQDSNPYVRTK [YCS4]
doa10∆
  protein stability index: 1.48 ± 0.037
pdr5∆
  protein stability index: 1.76 ± 0.11
san1∆
  protein stability index: 2.82 ± 0.076
ubr1∆
  protein stability index: 2.8 ± 0.096

## KFANQLHDEYLVSMRYP [RPN3]
doa10∆
  protein stability index: 2.35 ± 0.098
pdr5∆
  protein stability index: 2.9 ± 0.07
san1∆
  protein stability index: 2.43 ± 0.081
ubr1∆
  protein stability index: 2.76 ± 0.074

## KLLQLAGVEDVYTQSNG [RPS2]
doa10∆
  protein stability index: 1.56 ± 0.066
pdr5∆
  protein stability index: 2.64 ± 0.13
san1∆
  protein stability index: 3.19 ± 0.13
ubr1∆
  protein stability index: 3.13 ± 0.086

## TKFKGGKRQLMKAVGEY [SEC65]
doa10∆
  protein stability index: 2.88 ± 0.098
pdr5∆
  protein stability index: 3.11 ± 0.11
san1∆
  protein stability index: 3.26 ± 0.056
ubr1∆
  protein stability index: 2.46 ± 0.088

## VVKGLPDISRAVINIRD [RPO31]
doa10∆
  protein stability index: 2.83 ± 0.083
pdr5∆
  protein stability index: 2.23 ± 0.097
san1∆
  protein stability index: 2.6 ± 0.23
ubr1∆
  protein stability index: 2.47 ± 0.083

## QNAKLLANLIRDALRNI [RRP6]
doa10∆
  protein stability index: 2.17 ± 0.055
pdr5∆
  protein stability index: 2.18 ± 0.062
san1∆
  protein stability index: 2.36 ± 0.084
ubr1∆
  protein stability index: 2.23 ± 0.043

## EYYVMMDFANLWVFQAF [SRB8]
doa10∆
  protein stability index: 2.37 ± 0.098
pdr5∆
  protein stability index: 2.37 ± 0.082
san1∆
  protein stability index: 2.63 ± 0.093
ubr1∆
  protein stability index: 2.64 ± 0.057

## SDIVLDKKVTLITSEMF [SIN4]
doa10∆
  protein stability index: 1.69 ± 0.085
pdr5∆
  protein stability index: 1.92 ± 0.13
san1∆
  protein stability index: 1.79 ± 0.11
ubr1∆
  protein stability index: 2.14 ± 0.073

## YFKMFPASKHDKEVVYF [RPC34]
doa10∆
  protein stability index: 2.72 ± 0.16
pdr5∆
  protein stability index: 3.2 ± 0.093
san1∆
  protein stability index: 3.26 ± 0.075
ubr1∆
  protein stability index: 3.4 ± 0.19

## LPSSNGSSRIIASDGSE [RRP42]
doa10∆
  protein stability index: 3.08 ± 0.091
pdr5∆
  protein stability index: 2.86 ± 0.11
san1∆
  protein stability index: 3.17 ± 0.11
ubr1∆
  protein stability index: 2.74 ± 0.085

## LFQDGSASLHTRSLKYG [RRP4]
doa10∆
  protein stability index: 2.48 ± 0.085
pdr5∆
  protein stability index: 2.76 ± 0.088
san1∆
  protein stability index: 2.59 ± 0.1
ubr1∆
  protein stability index: 2.88 ± 0.059

## PSVNDFVIGVIIGTFSD [RRP40]
doa10∆
  protein stability index: 1.64 ± 0.06
pdr5∆
  protein stability index: 2.51 ± 0.07
san1∆
  protein stability index: 2.15 ± 0.077
ubr1∆
  protein stability index: 2.56 ± 0.084

## ASLVDYVQVRQPIFVAH [RPS5]
doa10∆
  protein stability index: 1.99 ± 0.1
pdr5∆
  protein stability index: 1.98 ± 0.069
san1∆
  protein stability index: 2.1 ± 0.14
ubr1∆
  protein stability index: 1.67 ± 0.11

## RLWLKKVMEEEEQDCKC [POP8]
doa10∆
  protein stability index: 2.5 ± 0.095
pdr5∆
  protein stability index: 2.9 ± 0.084
san1∆
  protein stability index: 3.07 ± 0.079
ubr1∆
  protein stability index: 2.8 ± 0.083

## AEHKYMPYTINELLEMV [BRR2]
doa10∆
  protein stability index: 2.92 ± 0.083
pdr5∆
  protein stability index: 3.04 ± 0.092
san1∆
  protein stability index: 2.53 ± 0.068
ubr1∆
  protein stability index: 2.65 ± 0.043

## YMFANLEFSIYHRLSNK [CSN12]
doa10∆
  protein stability index: 2.13 ± 0.072
pdr5∆
  protein stability index: 2.15 ± 0.076
san1∆
  protein stability index: 2.42 ± 0.11
ubr1∆
  protein stability index: 2.25 ± 0.082

## FPFVLKVDNDLRIELQS [SRB8]
doa10∆
  protein stability index: 2.98 ± 0.12
pdr5∆
  protein stability index: 3.05 ± 0.1
san1∆
  protein stability index: 2.61 ± 0.098
ubr1∆
  protein stability index: 3.31 ± 0.14

## ALSLLYHLLNYDPIKRI [SSN3]
doa10∆
  protein stability index: 2.56 ± 0.073
pdr5∆
  protein stability index: 2.05 ± 0.051
san1∆
  protein stability index: 2.39 ± 0.072
ubr1∆
  protein stability index: 2.19 ± 0.039

## VTPIIDGIVVKNAVVRS [ARP7]
doa10∆
  protein stability index: 1.51 ± 0.074
pdr5∆
  protein stability index: 1.92 ± 0.082
san1∆
  protein stability index: 1.61 ± 0.13
ubr1∆
  protein stability index: 1.74 ± 0.16

## KTWEKVTLDFGNIFADL [SMC2]
doa10∆
  protein stability index: 2.81 ± 0.099
pdr5∆
  protein stability index: 2.92 ± 0.12
san1∆
  protein stability index: 3.39 ± 0.1
ubr1∆
  protein stability index: 3.12 ± 0.13

## ATTQDQVASIIESFVEL [NUT2]
doa10∆
  protein stability index: 2.11 ± 0.071
pdr5∆
  protein stability index: 2.65 ± 0.076
san1∆
  protein stability index: 2.17 ± 0.15
ubr1∆
  protein stability index: 2.49 ± 0.054

## VTLLANVRALYMRLWEI [RMP1]
doa10∆
  protein stability index: 1.57 ± 0.21

## STTTSVNGSTTAGVGST [SIN4]
doa10∆
  protein stability index: 3.06 ± 0.044
pdr5∆
  protein stability index: 2.99 ± 0.048
san1∆
  protein stability index: 3.07 ± 0.041
ubr1∆
  protein stability index: 2.85 ± 0.036

## AVDKVISGYKKFSSTSR [RPT1]
doa10∆
  protein stability index: 3.46 ± 0.27
pdr5∆
  protein stability index: 3.87 ± 0.23
san1∆
  protein stability index: 3.21 ± 0.16
ubr1∆
  protein stability index: 3.74 ± 0.14

## KRSTVPLNDGFVDLVEH [YML103C/NUP188]
doa10∆
  protein stability index: 3.06 ± 0.09
pdr5∆
  protein stability index: 2.97 ± 0.093
san1∆
  protein stability index: 3.37 ± 0.12
ubr1∆
  protein stability index: 2.69 ± 0.053

## KSKEDMKQLKFFKPLDY [SNU114]
doa10∆
  protein stability index: 3.32 ± 0.14
pdr5∆
  protein stability index: 3.08 ± 0.098
san1∆
  protein stability index: 3.05 ± 0.16
ubr1∆
  protein stability index: 3.29 ± 0.087

## HIEKLENEFVVLLDARD [CDC53]
doa10∆
  protein stability index: 3.35 ± 0.088
pdr5∆
  protein stability index: 3.05 ± 0.081
san1∆
  protein stability index: 2.9 ± 0.14
ubr1∆
  protein stability index: 3.27 ± 0.091

## GEIQLLFQRQKLHEFYL [IRR1]
doa10∆
  protein stability index: 2.71 ± 0.12
pdr5∆
  protein stability index: 2.96 ± 0.075
san1∆
  protein stability index: 2.63 ± 0.061
ubr1∆
  protein stability index: 2.9 ± 0.16

## LNIDWSTTGDNGELDLS [MED2]
doa10∆
  protein stability index: 2.2 ± 0.057
pdr5∆
  protein stability index: 2.48 ± 0.058
san1∆
  protein stability index: 2.13 ± 0.079
ubr1∆
  protein stability index: 2.28 ± 0.044

## RALSIFSPDGHIFQVEY [PRE6]
doa10∆
  protein stability index: 2.97 ± 0.051
pdr5∆
  protein stability index: 2.98 ± 0.05
san1∆
  protein stability index: 3.04 ± 0.032
ubr1∆
  protein stability index: 3.1 ± 0.032

## RENIAMLKRFFPGVKGL [SMC1]
doa10∆
  protein stability index: 2.5 ± 0.17
pdr5∆
  protein stability index: 2.49 ± 0.2
san1∆
  protein stability index: 2.01 ± 0.13
ubr1∆
  protein stability index: 2.43 ± 0.15

## VAGAIRAGIIIAKLSVI [RPS2]
doa10∆
  protein stability index: 1.91 ± 0.1
pdr5∆
  protein stability index: 2.35 ± 0.098
san1∆
  protein stability index: 1.4 ± 0.13
ubr1∆
  protein stability index: 2.65 ± 0.083

## ADKVYTKENLEVSGENV [QCR2]
doa10∆
  protein stability index: 3.44 ± 0.1
pdr5∆
  protein stability index: 3.59 ± 0.072
san1∆
  protein stability index: 3.2 ± 0.092
ubr1∆
  protein stability index: 3.28 ± 0.052

## SSFGSESLTFNEFQLQW [SWI1]
doa10∆
  protein stability index: 2.98 ± 0.066
pdr5∆
  protein stability index: 2.84 ± 0.056
san1∆
  protein stability index: 2.56 ± 0.054
ubr1∆
  protein stability index: 3.02 ± 0.046

## LPEKVNFRTMQQQQMQQ [SSN2]
doa10∆
  protein stability index: 2.3 ± 0.18
pdr5∆
  protein stability index: 2.75 ± 0.18
san1∆
  protein stability index: 2.46 ± 0.19
ubr1∆
  protein stability index: 2.38 ± 0.14

## TSAHLKLKEMQKVLNAH [SMC4]
doa10∆
  protein stability index: 2.41 ± 0.13
pdr5∆
  protein stability index: 2.76 ± 0.17
san1∆
  protein stability index: 2.63 ± 0.096
ubr1∆
  protein stability index: 1.97 ± 0.085

## LPSEERIQKIISKRKEE [YIL149C/MLP2]
doa10∆
  protein stability index: 1.74 ± 0.08
pdr5∆
  protein stability index: 1.66 ± 0.074
san1∆
  protein stability index: 1.41 ± 0.16
ubr1∆
  protein stability index: 1.65 ± 0.055

## QLTPQQQQLVNQMKVAP [GAL11]
doa10∆
  protein stability index: 2.8 ± 0.061
pdr5∆
  protein stability index: 2.98 ± 0.058
san1∆
  protein stability index: 3.01 ± 0.061
ubr1∆
  protein stability index: 2.79 ± 0.049

## VVNQPTGKIVDVVGTLS [FAS1]
doa10∆
  protein stability index: 3.1 ± 0.12
pdr5∆
  protein stability index: 3.49 ± 0.12
san1∆
  protein stability index: 3.49 ± 0.092
ubr1∆
  protein stability index: 3.11 ± 0.061

## VSNLMGRNIGHPIIQDK [RPB3]
doa10∆
  protein stability index: 3.42 ± 0.079
pdr5∆
  protein stability index: 3.43 ± 0.072
san1∆
  protein stability index: 3.17 ± 0.053
ubr1∆
  protein stability index: 3.22 ± 0.084

## PNSGTATTGGFGANQAT [YGR119C/NUP57]
doa10∆
  protein stability index: 2.12 ± 0.084
pdr5∆
  protein stability index: 2.33 ± 0.07
san1∆
  protein stability index: 2.12 ± 0.091
ubr1∆
  protein stability index: 2.14 ± 0.067

## IGARSQGAKTYLERTLD [PRE5]
doa10∆
  protein stability index: 3.36 ± 0.13
pdr5∆
  protein stability index: 3.34 ± 0.069
san1∆
  protein stability index: 3.23 ± 0.07
ubr1∆
  protein stability index: 3.22 ± 0.066

## GYDRHITIFSPEGRLYQ [SCL1]
doa10∆
  protein stability index: 2.76 ± 0.11
pdr5∆
  protein stability index: 2.84 ± 0.082
san1∆
  protein stability index: 2.96 ± 0.057
ubr1∆
  protein stability index: 3.06 ± 0.077

## LDESSEQKNTAKEELNG [YIL149C/MLP2]
doa10∆
  protein stability index: 3.1 ± 0.15
pdr5∆
  protein stability index: 2.95 ± 0.27
san1∆
  protein stability index: 3.21 ± 0.072
ubr1∆
  protein stability index: 3.22 ± 0.087

## DSEKRNKYAAMLTSENA [RRP45]
doa10∆
  protein stability index: 2.97 ± 0.068
pdr5∆
  protein stability index: 3.02 ± 0.063
san1∆
  protein stability index: 3.14 ± 0.067
ubr1∆
  protein stability index: 2.92 ± 0.04

## ATPQEAQFYLGKRIAYV [RPL33B]
doa10∆
  protein stability index: 1.64 ± 0.11
pdr5∆
  protein stability index: 2.2 ± 0.068
san1∆
  protein stability index: 1.76 ± 0.076
ubr1∆
  protein stability index: 2.43 ± 0.077

## GISEVQARKSKSVSFYA [RPT5]
doa10∆
  protein stability index: 3.4 ± 0.064
pdr5∆
  protein stability index: 3.39 ± 0.093
san1∆
  protein stability index: 3.37 ± 0.056
ubr1∆
  protein stability index: 3.31 ± 0.063

## SVMMQDSPASNEDDLTV [RPO31]
doa10∆
  protein stability index: 3.02 ± 0.097
pdr5∆
  protein stability index: 3.08 ± 0.083
san1∆
  protein stability index: 2.78 ± 0.076
ubr1∆
  protein stability index: 3.31 ± 0.12

## EDFLHFIVAEYIQQKKV [SRB4]
doa10∆
  protein stability index: 2.57 ± 0.1
pdr5∆
  protein stability index: 2.79 ± 0.078
san1∆
  protein stability index: 2.28 ± 0.1
ubr1∆
  protein stability index: 2.9 ± 0.067
